Experimental data: article doi:10.1101/2021.01.22.427567 (bioRxiv, 2021)

Biological target: SARS-CoV-2 S trimer (SARS-CoV-2, wild-type (Wuhan-Hu-1 …, UniProt P0DTC2))
Assay: SPR

B1: C121 IgG (antibody, V domains shown)
VH: not shown
VL: QSALTQPASVSGSPGQSITISCTGTSSDVGSYNLVSWYQQHPGKAPKLMIYEGSKRPSGVSNRFSGSKSGNTASLTISGLQAEDEADYYCCSYAGSSTLVFGGGTKLTVL
- binding result: binds
